From article doi:10.1101/2024.05.12.593783 come the findings set out here.

Assay [1] has as its target FITC-CLMBWT peptide (residues 21-50), not phosphorylated (UniProt Q96GX8). Briefly: fluorescence polarisation.
Assay [2] has as its target FITC-pCLMBWT peptide (residues 21-50, pThr44) (UniProt Q96GX8). As to the kind of experiment: fluorescence polarisation.

Take “purified, catalytically inactive CNA/B containing CNA_(Trunc+H151Q) (from UniProt Q08209 1-391; P63098 1-170) (complex)”: the dissociation constant (Kd) in assay [1] was 291 nM; in assay [2], 14.1 nM.
